From patent US20110236390A1 (Janssen / Centocor, published 2011) come the findings set out here.

To fix the notation:
T1: cynomolgus IL-17A (cynomolgus, UniProt Q16552 24-155 (human entry), limits assumed)
T1 chain: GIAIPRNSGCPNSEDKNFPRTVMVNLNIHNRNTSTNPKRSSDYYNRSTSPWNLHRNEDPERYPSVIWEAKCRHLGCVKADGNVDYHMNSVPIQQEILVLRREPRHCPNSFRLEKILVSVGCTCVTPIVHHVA

B1: mAb3077 (antibody, human IgG1, lambda, V domains shown)
VH: QVQLVQSGAEVKKPGSSVKVSCKASGGTFSSYAISWVRQAPGQGLEWMGSIIPWFGWTNYAQKFQGRVTITADESTSTAYMELSSLRSEDTAVYYCARDSEYYFDHWGQGTLVTVSS
VL: DIQMTQSPSSVSASVGDRVTITCRASQGISNWLNWYQQKPGKAPKLLIYAASSLQSGVPSRFSGSGSGTDFTLTISSLQPEDFATYYCQQYSDDPTFGQGTKVEIKG
notes: Framework-engineered mAb; also called engineered form of MOR7785
B2: mAb7024 (antibody, human IgG1, lambda, V domains shown)
VH: QVQLVQSGAEVKKPGSSVKVSCKASGGTFSSYAISWVRQAPGQGLEWMGSIIPWFGTTNYAQKFQGRVTITADESTSTAYMELSSLRSEDTAVYYCARDSEYYFDHWGQGTLVTVSS
VL: DIQMTQSPSSVSASVGDRVTITCRASQGISNWLNWYQQKPGKAPKLLIYAASSLQSGVPSRFSGSGSGTDFTLTISSLQPEDFATYYCQQYSDDPTFGQGTKVEIKG
notes: Framework-engineered mAb; also called engineered form of MOR8104
B3: mAb624 (antibody, human IgG1, lambda, V domains shown)
VH: QVQLVQSGAEVKKPGSSVKVSCKASGGTFSSYAISWVRQAPGQGLEWMGRIIPWFGWTSYAQKFQGRVTITADESTSTAYMELSSLRSEDTAVYYCARDSEYYFDHWGQGTLVTVSS
VL: DIQMTQSPSSVSASVGDRVTITCRASQGISNWLNWYQQKPGKAPKLLIYAASSLQSGVPSRFSGSGSGTDFTLTISSLQPEDFATYYCQQYSDDPTFGQGTKVEIKG
notes: Framework-engineered mAb; also called engineered form of MOR7708
B4: MORmAb7700 (antibody, V domains shown)
VH: QVQLVESGGGLVQPGGSLRLSCAASGFTFSSYAMSWVRQAPGKGLEWVSTISMTSGFTYYADSVKGRFTISRDNSKNTLYLQMNSLRAEDTAVYYCARQLMLDVWGQGTLVTVSS
VL: DIELTQPPSVSVAPGQTARISCSGDNLGDKYANWYQQKPGQAPVLVIYDDIDRPSGIPERFSGSNSGNTATLTISGTQAEDEADYYCGSYDFFLGMIVFGGGTKLTVL
B5: MORmAb8143 (antibody, V domains shown)
VH: QVQLVESGGGLVQPGGSLRLSCAASGFTFSSYAMSWVRQAPGKGLEWVSTISMTSGFTYYADSVKGRFTISRDNSKNTLYLQMNSLRAEDTAVYYCARQLMLDVWGQGTLVTVSS
VL: DIELTQPPSVSVAPGQTARISCSGDNLGDKYANWYQQKPGQAPVLVIYDDIDRPSGIPERFSGSNSGNTATLTISGTQAEDEADYYCGSYDFFLGYIVFGGGTKLTVL
B6: MORmAb8096 (antibody, V domains shown)
VH: QVQLVESGGGLVQPGGSLRLSCAASGFTFSSYAMSWVRQAPGKGLEWVSTISLTSGFTYYADSVKGRFTISRDNSKNTLYLQMNSLRAEDTAVYYCARQLMLDVWGQGTLVTVSS
VL: DIELTQPPSVSVAPGQTARISCSGDNLGDKYANWYQQKPGQAPVLVIYDDIDRPSGIPERFSGSNSGNTATLTISGTQAEDEADYYCGSYDFFLGMIVFGGGTKLTVL
B7: MORmAb8142 (antibody, V domains shown)
VH: QVQLVESGGGLVQPGGSLRLSCAASGFTFSSYAMSWVRQAPGKGLEWVSTISMTSGFTYYADSVKGRFTISRDNSKNTLYLQMNSLRAEDTAVYYCARQLMLDVWGQGTLVTVSS
VL: DIELTQPPSVSVAPGQTARISCSGDNLGDKYANWYQQKPGQAPVLVIYDDIDRPSGIPERFSGSNSGNTATLTISGTQAEDEADYYCGSYDFFLGTIVFGGGTKLTVL
B8: MORmAb8097 (antibody, V domains shown)
VH: QVQLVESGGGLVQPGGSLRLSCAASGFTFSSYAMSWVRQAPGKGLEWVSTISMTSGFTYYADSVKGRFTISRDNSKNTLYLQMNSLRAEDTAVYYCARQLLLDVWGQGTLVTVSS
VL: DIELTQPPSVSVAPGQTARISCSGDNLGDKYANWYQQKPGQAPVLVIYDDIDRPSGIPERFSGSNSGNTATLTISGTQAEDEADYYCGSYDFFLGMIVFGGGTKLTVL
B9: MORmAb8141 (antibody, V domains shown)
VH: QVQLVESGGGLVQPGGSLRLSCAASGFTFSSYAMSWVRQAPGKGLEWVSTISMTSGFTYYADSVKGRFTISRDNSKNTLYLQMNSLRAEDTAVYYCARQLMLDVWGQGTLVTVSS
VL: DIELTQPPSVSVAPGQTARISCSGDNLGDKYANWYQQKPGQAPVLVIYDDIDRPSGIPERFSGSNSGNTATLTISGTQAEDEADYYCGSYDFFLGLIVFGGGTKLTVL
B10: MORmAb8098 (antibody, V domains shown)
VH: QVQLVESGGGLVQPGGSLRLSCAASGFTFSSYAMSWVRQAPGKGLEWVSTISMTSGFTYYADSVKGRFTISRDNSKNTLYLQMNSLRAEDTAVYYCARQLTLDVWGQGTLVTVSS
VL: DIELTQPPSVSVAPGQTARISCSGDNLGDKYANWYQQKPGQAPVLVIYDDIDRPSGIPERFSGSNSGNTATLTISGTQAEDEADYYCGSYDFFLGMIVFGGGTKLTVL
B11: MORmAb8095 (antibody, V domains shown)
VH: QVQLVESGGGLVQPGGSLRLSCAASGFTFSSYAMSWVRQAPGKGLEWVSTISITSGFTYYADSVKGRFTISRDNSKNTLYLQMNSLRAEDTAVYYCARQLMLDVWGQGTLVTVSS
VL: DIELTQPPSVSVAPGQTARISCSGDNLGDKYANWYQQKPGQAPVLVIYDDIDRPSGIPERFSGSNSGNTATLTISGTQAEDEADYYCGSYDFFLGMIVFGGGTKLTVL
B12: MORmAb7785 (antibody, V domains shown)
VH: QVQLVQSGAEVKKPGSSVKVSCKASGGTFSSYAISWVRQAPGQGLEWMGSIIPWFGWTNYAQKFQGRVTITADESTSTAYMELSSLRSEDTAVYYCARDSEYYFDHWGQGTLVTVSS
VL: DIQMTQSPSSLSASVGDRVTITCRASQGISNWLNWYQQKPGKAPKLLIYAASSLQSGVPSRFSGSGSGTDFTLTISSLQPEDFAVYYCQQYSDDPTFGQGTKVEIK
B13: MORmAb7708 (antibody, V domains shown)
VH: QVQLVQSGAEVKKPGSSVKVSCKASGGTFSSYAISWVRQAPGQGLEWMGRIIPWFGWTSYAQKFQGRVTITADESTSTAYMELSSLRSEDTAVYYCARDSEYYFDHWGQGTLVTVSS
VL: DIQMTQSPSSLSASVGDRVTITCRASQGISNWLNWYQQKPGKAPKLLIYAASSLQSGVPSRFSGSGSGTDFTLTISSLQPEDFAVYYCQQYSDDPTFGQGTKVEIK
B14: MORmAb8104 (antibody, V domains shown)
VH: QVQLVQSGAEVKKPGSSVKVSCKASGGTFSSYAISWVRQAPGQGLEWMGSIIPWFGTTNYAQKFQGRVTITADESTSTAYMELSSLRSEDTAVYYCARDSEYYFDHWGQGTLVTVSS
VL: DIQMTQSPSSLSASVGDRVTITCRASQGISNWLNWYQQKPGKAPKLLIYAASSLQSGVPSRFSGSGSGTDFTLTISSLQPEDFAVYYCQQYSDDPTFGQGTKVEIK
B15: MORmAb8105 (antibody, V domains shown)
VH: QVQLVQSGAEVKKPGSSVKVSCKASGGTFSSYAISWVRQAPGQGLEWMGSIIPWFGYTNYAQKFQGRVTITADESTSTAYMELSSLRSEDTAVYYCARDSEYYFDHWGQGTLVTVSS
VL: DIQMTQSPSSLSASVGDRVTITCRASQGISNWLNWYQQKPGKAPKLLIYAASSLQSGVPSRFSGSGSGTDFTLTISSLQPEDFAVYYCQQYSDDPTFGQGTKVEIK
B16: MORmAb7775 (antibody, V domains shown)
VH: QVQLQQSGPGLVKPSQTLSLTCAISGDSVSSSSAAWGWIRQSPGRGLEWLGRISYRSKWYNDYAVSVKSRITINPDTSKNQFSLQLNSVTPEDTAVYYCAREVDSMYYSYFDIWGQGTLVTVSS
VL: DIVLTQSPATLSLSPGERATLSCRASQNVWAFYLAWYQQKPGQAPRLLIYGASNRATGVPARFSGSGSGTDFTLTISSLEPEDFATYYCTQYYSSPSLTFGQGTKVEIK
B17: MORmAb8101 (antibody, V domains shown)
VH: QVQLQQSGPGLVKPSQTLSLTCAISGDSVSSSSAAWGWIRQSPGRGLEWLGRISYRSKWYNDYAVSVKSRITINPDTSKNQFSLQLNSVTPEDTAVYYCAREVDSIYYSYFDIWGQGTLVTVSS
VL: DIVLTQSPATLSLSPGERATLSCRASQNVWAFYLAWYQQKPGQAPRLLIYGASNRATGVPARFSGSGSGTDFTLTISSLEPEDFATYYCTQYYSSPSLTFGQGTKVEIK
B18: MORmAb8103 (antibody, V domains shown)
VH: QVQLQQSGPGLVKPSQTLSLTCAISGDSVSSSSAAWGWIRQSPGRGLEWLGRISYRSKWYNDYAVSVKSRITINPDTSKNQFSLQLNSVTPEDTAVYYCAREVDSTYYSYFDIWGQGTLVTVSS
VL: DIVLTQSPATLSLSPGERATLSCRASQNVWAFYLAWYQQKPGQAPRLLIYGASNRATGVPARFSGSGSGTDFTLTISSLEPEDFATYYCTQYYSSPSLTFGQGTKVEIK
B19: MORmAb8102 (antibody, V domains shown)
VH: QVQLQQSGPGLVKPSQTLSLTCAISGDSVSSSSAAWGWIRQSPGRGLEWLGRISYRSKWYNDYAVSVKSRITINPDTSKNQFSLQLNSVTPEDTAVYYCAREVDSLYYSYFDIWGQGTLVTVSS
VL: DIVLTQSPATLSLSPGERATLSCRASQNVWAFYLAWYQQKPGQAPRLLIYGASNRATGVPARFSGSGSGTDFTLTISSLEPEDFATYYCTQYYSSPSLTFGQGTKVEIK
B20: MORmAb7706 (antibody, V domains shown)
VH: QVQLQQSGPGLVKPSQTLSLTCAISGDSVSSSSAAWGWIRQSPGRGLEWLGRISYRSKWYNDYAVSVKSRITINPDTSKNQFSLQLNSVTPEDTAVYYCAREVDSMYYSYFDIWGQGTLVTVSS
VL: DIVLTQSPATLSLSPGERATLSCRASQNVWAFYLAWYQQKPGQAPRLLIYGASNRATGVPARFSGSGSGTDFTLTISSLEPEDFATYYCQQYRSTLSLTFGQGTKVEIK

In the first assay the target is T1, cynomolgus IL-17A. Put plainly: cell-based or functional assay.
As for B1, the “IL-6 production (NHDF), IC50” value stood at 0.113 nM and the “IL-8 production (NHDF), IC50” value came out at 0.374 nM.

Turning to B2, the “IL-6 production (NHDF), IC50” value amounted to 0.999 nM and the “IL-8 production (NHDF), IC50” value is 2.98 nM.

For B3, the “IL-8 production (NHDF), IC50” value turned out to be 0.192 nM.

Another assay has as its target T1, cynomolgus IL-17A. Put plainly: competition ELISA: mAb against biotinylated cyno IL-17A binding to coated IL-17RA-Fc.
Procedure: (§1) Clear maxisorp plates were coated with 100 μl/well of 2.5 μg/ml human IL-17RA-Fc (R&D Systems, Minneapolis, Minn.) in 0.1 M sodium carbonate-bicarbonate buffer, pH 9.4 and incubated overnight at 4° C. […] The signal was detected with 100 μl of 1:10,000 dilution of 1 mg/ml SA-HRP (Jackson Immunoresearch, West Grove, Pa.) for 20 minutes at room temperature (RT) followed by 100 μl/well of OPD substrate (Sigma-Aldrich Corp., St. Louis, Mo.).
By IC50 is commonly meant the midpoint of a concentration-inhibition curve. A higher IC50 goes with weaker potency. B4: the IC50 came out at 0.236 nM.

Regarding B5, the 50% inhibitory concentration (IC50) stood at 0.252 nM.

As to B6, the half-inhibitory concentration (IC50) is 0.058 nM.

In turn, B7 yielded an IC50 of 0.139 nM.

For B8, the concentration for half-maximal inhibition (IC50) was 0.3 nM.

B9 came in with a 50% inhibitory concentration (IC50) of 1.44 nM.

Turning to B10, the IC50 amounted to 0.289 nM.

Molecule B11 yielded a concentration for half-maximal inhibition (IC50) of 0.198 nM.

In turn, B12 displayed a half-inhibitory concentration (IC50) of 0.27 nM.

Molecule B13 came in with an IC50 of 0.289 nM.

B14 had an IC50 of 0.306 nM.

In turn, B15 displayed an IC50 of 0.498 nM.

B16 registered an IC50 of 0.541 nM.

B17 came in with an IC50 of 0.845 nM.

Turning to B18, the half-maximal inhibitory concentration (IC50) amounted to 0.491 nM.

On to B19, for which the IC50 was determined as 0.838 nM.

Consider B20, for which the IC50 came out at 0.961 nM.

The target of another assay is T1, cynomolgus IL-17A. The assay is described as above. The source holds these as a separate data set.
Procedure: as §1
As to B1, the 50% inhibitory concentration (IC50) came out at 0.054 nM.

Molecule B2 displayed an IC50 of 0.117 nM.

B3 displayed an IC50 of 0.051 nM.
